In experiment [1] the target is T1, matrix metalloproteinase-2 (MMP-2), recombinant human (human, UniProt P08253 30-660).
T1 sequence (looked up): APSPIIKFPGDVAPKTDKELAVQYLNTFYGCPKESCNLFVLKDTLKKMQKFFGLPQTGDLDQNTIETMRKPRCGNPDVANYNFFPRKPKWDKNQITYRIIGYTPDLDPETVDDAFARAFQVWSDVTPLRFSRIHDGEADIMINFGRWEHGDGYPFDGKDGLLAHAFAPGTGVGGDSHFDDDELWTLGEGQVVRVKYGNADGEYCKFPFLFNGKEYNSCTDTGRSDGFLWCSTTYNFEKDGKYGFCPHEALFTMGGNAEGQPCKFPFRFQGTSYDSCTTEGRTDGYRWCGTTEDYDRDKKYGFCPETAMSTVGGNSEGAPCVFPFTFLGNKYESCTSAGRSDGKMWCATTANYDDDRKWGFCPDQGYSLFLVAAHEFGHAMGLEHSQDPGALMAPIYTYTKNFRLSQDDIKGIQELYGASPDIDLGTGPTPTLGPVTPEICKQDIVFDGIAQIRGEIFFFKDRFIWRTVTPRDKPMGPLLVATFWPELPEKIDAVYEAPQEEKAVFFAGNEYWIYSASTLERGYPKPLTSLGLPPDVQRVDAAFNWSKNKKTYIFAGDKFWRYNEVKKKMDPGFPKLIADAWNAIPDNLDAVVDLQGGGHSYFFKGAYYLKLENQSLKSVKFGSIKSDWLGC
As to the kind of experiment: SPR.

The target in experiment [2] is T2, bone morphogenetic protein-1 (BMP-1), recombinant human (human, UniProt P13497-2 121-730).
T2 sequence (looked up): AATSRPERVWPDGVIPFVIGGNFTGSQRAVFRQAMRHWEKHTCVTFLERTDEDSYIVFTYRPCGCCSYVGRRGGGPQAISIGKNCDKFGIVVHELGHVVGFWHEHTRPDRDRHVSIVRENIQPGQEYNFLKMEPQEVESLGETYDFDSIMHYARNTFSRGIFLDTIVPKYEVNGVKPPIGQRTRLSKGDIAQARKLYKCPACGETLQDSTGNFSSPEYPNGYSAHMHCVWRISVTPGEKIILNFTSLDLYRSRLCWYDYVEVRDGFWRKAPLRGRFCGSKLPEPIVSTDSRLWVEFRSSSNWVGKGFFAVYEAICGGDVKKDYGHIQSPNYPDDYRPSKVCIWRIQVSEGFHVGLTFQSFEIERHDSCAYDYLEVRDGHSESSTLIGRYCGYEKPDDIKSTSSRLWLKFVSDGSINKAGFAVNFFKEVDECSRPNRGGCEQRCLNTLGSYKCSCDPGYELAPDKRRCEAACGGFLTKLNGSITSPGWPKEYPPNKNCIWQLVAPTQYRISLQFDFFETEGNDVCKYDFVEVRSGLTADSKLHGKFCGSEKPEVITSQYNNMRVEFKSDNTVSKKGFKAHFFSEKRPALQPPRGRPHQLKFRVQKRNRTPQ
Nature of the experiment: SPR.

Some results are limits rather than exact numbers.

B1: NTRshort (NTRs), short form of the netrin-like (NTR) domain of human PCPE-1 starting at Cys318 (domain or fragment, UniProt Q15113 318-449, looked up)
chain: CPKQCRRTGTLQSNFCASSLVVTATVKSMVREPGEGLAVTVSLIGAYKTGGLDLPSPPTGASLKFYVPCKQCPPMKKGVSYLLMGQVEENRGPVLPPESFVVLHRPNQDQILTNLSKRKCPSQPVRAAASQD
For B1, in experiment [1], the Kd (commonly a measure of binding affinity in units of concentration) is at least 1000 nM.

B2: procollagen C-proteinase enhancer-1 (PCPE-1), full-length, recombinant human (natural protein, UniProt Q15113 26-449, looked up)
chain: QTPNYTRPVFLCGGDVKGESGYVASEGFPNLYPPNKECIWTITVPEGQTVSLSFRVFDLELHPACRYDALEVFAGSGTSGQRLGRFCGTFRPAPLVAPGNQVTLRMTTDEGTGGRGFLLWYSGRATSGTEHQFCGGRLEKAQGTLTTPNWPESDYPPGISCSWHIIAPPDQVIALTFEKFDLEPDTYCRYDSVSVFNGAVSDDSRRLGKFCGDAVPGSISSEGNELLVQFVSDLSVTADGFSASYKTLPRGTAKEGQGPGPKRGTEPKVKLPPKSQPPEKTEESPSAPDAPTCPKQCRRTGTLQSNFCASSLVVTATVKSMVREPGEGLAVTVSLIGAYKTGGLDLPSPPTGASLKFYVPCKQCPPMKKGVSYLLMGQVEENRGPVLPPESFVVLHRPNQDQILTNLSKRKCPSQPVRAAASQD
Turning to B2, in experiment [2], the “KD of site 1 (two binding sites model)” value was 129 ± 19 nM and the “KD of site 2 (two binding sites model)” value amounted to 5200 ± 500 nM.

(Values after PMC2871463 (The Journal of Biological Chemistry, 2010).)
